Measurements published in patent US20090226415A1, “MODIFIED TRIDEGINS, PRODUCTION AND USE THEREOF AS TRANSGLUTAMINASE INHIBITORS” (priority 2001, published 2009).
Positions count from the first letter of the chain named. Names may count otherwise.

B1: recombinant tridegin polypeptide expressed in the yeast Pichia pastoris: tridegin polypeptide encoded by SEQ ID No. 90, secreted from Pichia pastoris; main product lacks the 11 C-terminal residues (protein)
chain: MRFPSIFTAVLFAASSALAAPVNTTTEDETAQIPAEAVIGYSDLEGDFDVAVLPFSNSTNNGLLFINTTIASIAAKEEGVSLEKRKLLPCKEWHQGIPNPRCWCGADLECAQDQYCAFIPQCRPRSELIKPMDDIYQRPVEFPNLPLKPREESLEHHHHHH
modifications: main product lacks 11 C-terminal residues
notes: main product lacks the 11 C-terminal residues
B2: H10A: modified tridegin, XnY mutation of SEQ ID No. 1, expressed in Escherichia coli (protein)
chain: MKLLPCKEWAQGIPNPRCWCGADLECAQDQYCAFIPQCRPRSELIKPMDDIYQRPVEFPNLPLKPREE
B3: G12A: modified tridegin, XnY mutation of SEQ ID No. 1, expressed in Escherichia coli (protein)
chain: B2 chain with A10H, G12A
B4: L24A: modified tridegin, XnY mutation of SEQ ID No. 1, expressed in Escherichia coli (protein)
chain: B2 chain with A10H, L24A
B5: Y31A: modified tridegin, XnY mutation of SEQ ID No. 1, expressed in Escherichia coli (protein)
chain: B2 chain with A10H, Y31A
B6: F34A: modified tridegin, XnY mutation of SEQ ID No. 1, expressed in Escherichia coli (protein)
chain: B2 chain with A10H, F34A
B7: R39A: modified tridegin, XnY mutation of SEQ ID No. 1, expressed in Escherichia coli (protein)
chain: B2 chain with A10H, R39A
B8: I45A: modified tridegin, XnY mutation of SEQ ID No. 1, expressed in Escherichia coli (protein)
chain: B2 chain with A10H, I45A
B9: M48A: modified tridegin, XnY mutation of SEQ ID No. 1, expressed in Escherichia coli (protein)
chain: B2 chain with A10H, M48A
B10: D50A: modified tridegin, XnY mutation of SEQ ID No. 1, expressed in Escherichia coli (protein)
chain: B2 chain with A10H, D50A

molecular target: T1, factor XIIIa (Homo sapiens, UniProt P00488); experiment: biochemical; type: biochemical; settings: not given
T1 sequence (P00488 39-732 limits assumed): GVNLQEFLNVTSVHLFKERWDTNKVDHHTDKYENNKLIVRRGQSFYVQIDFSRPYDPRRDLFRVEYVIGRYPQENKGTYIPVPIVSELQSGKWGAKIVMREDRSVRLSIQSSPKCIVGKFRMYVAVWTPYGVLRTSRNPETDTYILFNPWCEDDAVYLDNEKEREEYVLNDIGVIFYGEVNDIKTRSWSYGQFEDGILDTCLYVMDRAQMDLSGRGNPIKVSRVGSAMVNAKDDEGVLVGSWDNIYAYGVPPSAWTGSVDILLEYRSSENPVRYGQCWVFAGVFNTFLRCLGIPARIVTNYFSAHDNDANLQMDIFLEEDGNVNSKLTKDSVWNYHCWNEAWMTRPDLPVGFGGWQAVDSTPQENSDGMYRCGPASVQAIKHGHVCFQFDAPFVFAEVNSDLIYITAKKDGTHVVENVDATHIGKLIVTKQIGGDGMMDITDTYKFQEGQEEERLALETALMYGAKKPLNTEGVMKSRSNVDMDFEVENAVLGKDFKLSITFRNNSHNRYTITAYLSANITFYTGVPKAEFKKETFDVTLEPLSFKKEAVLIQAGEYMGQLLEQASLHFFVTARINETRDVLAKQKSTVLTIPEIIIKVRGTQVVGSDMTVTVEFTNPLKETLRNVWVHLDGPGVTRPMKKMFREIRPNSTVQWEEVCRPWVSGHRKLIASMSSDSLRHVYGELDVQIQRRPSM
Experimental: The assay is based on factor XIII being activated to form factor XIIIa by thrombin which is present in the reagents. Factor XIIIa links a specific peptide substrate to glycine ethyl ester with ammonium ions being released. The latter are determined in an enzyme reaction which proceeds in parallel. The extinction at 340 nm was used to measure the decrease in NADH. For the measurement, peptides were present in 50% acetonitrile in a stock concentration of 5 mM. The NADH and detection reagents which were supplied by the manufacturer were dissolved in 3 ml of water, with the activator reagent subsequently being dissolved in 3 ml of NADH reagent. For use, the activator and detection reagents were mixed in a ratio of 1:1. In order to carry out the measurement in microtiter plate format, 100 μl of sample (inhibitor or control buffer), 25 μl of factor XIII (10 U/ml) and 150 μl of working reagent were mixed. The measurement was carried out continuously for 20 min at 340 nm, and at 37° C., in a microtiter plate photometer. For the evaluation, the differences in the values measured after 16 and 20 min were compared.
The relative inhibitory effect (%) was determined at a final variant concentration of 5.45 μM. The inhibitory effect of the recombinant tridegin polypeptide was normalized to 100% (at 5.45 μM).
The above-described Berichrom® assay was used to determine the relative inhibitory effect (%) at a final concentration of the peptides of 7.27 μM. The inhibitory effect of the recombinant tridegin polypeptide, at a final concentration of 7.27 μM, was normalized to 100%.
The relative inhibitory effect (%) was determined at a final variant concentration of 5.45 μM. The inhibitory effect of the recombinant wild-type tridegin poly-peptide (at 5.45 μM) was normalized to 100%. The oligonucleotides which were used to produce the abovementioned variants are also specified in the table.

Molecule	inhibitory activity compared with wild-type tridegin polypeptide expressed in Escherichia coli
B1	even more effective

same assay, conditions: Table 2; final variant concentration 5.45 μM; recombinant tridegin polypeptide normalized to 100%

Molecule	Relative inhibitory effect (%)
B2	87%
B3	97%
B4	92%
B5	69%
B6	96%
B7	49%
B8	115%
B9	91%
B10	53%

same assay, conditions: Table 3; final peptide concentration 7.27 μM; recombinant tridegin polypeptide at 7.27 μM normalized to 100%

Molecule	relative inhibitory effect (% of recombinant tridegin) at 7.27 µM
Ac-PMDDIYQRPVEFPNLPLKPR-NH2 [SEQ ID No. 25]	42.1%
Ac-DDIYQRPVEFPNLPLKPREE-NH2 [SEQ ID No. 26]	35.6%
Ac-IKPMDDIYQRPVEFPNLPLK-NH2 [SEQ ID No. 24]	43.5%
